Data published in publication PMC4721548, “Conformational heterogeneity of the Roc domains in C. tepidum Roc–COR and implications for human LRRK2 Parkinson mutations” (Bioscience Reports, 2015).
Numbering of substitutions follows the chain as printed.

B1: C. tepidum RocCOR (AA 412-946) C600R1 + Y558A (domain or fragment, Chlorobium tepidum, UniProt Q8KC98 412-946, looked up)
chain: DNPLESPPPEIVKQGKEAVRQYFQSIEEARSKGEALVHLQEIKVHLIGDGMAGKTSLLKQLIGETFDPKESQTHGLNVVTKQAPNIKGLENDDELKECLFHFWDFGGQEIMHASHQFFMTRSSVYMLLLDSRTDSNKHYWLRHIEKAGGKSPVIVVMNKIDENPSYNIEQKKINERFPAIENRFHRISCKNGDGVESIAKSLKSAVLHPDSIYGTPLAPSWIKVKEKLVEATTAQRYLNRTEVEKICNDSGITDPGERKTLLGYLNNLGIVLYFEALDLSEIYVLDPHWVTIGVYRIINSSKTKNGHLNTSALGYILNEEQIRCDEYDPAKNNKFTYTLLEQRYLLDIMKQFELCYDEGKGLFIIPSNLPTQIDNEPEITEGEPLRFIMKYDYLPSTIIPRLMIAMQHQILDRMQWRYGMVLKSQDHEGALAKVVAETKDSTITIAIQGEPRCKREYLSIIWYEIKKINANFTNLDVKEFIPLPGHPDELVEYKELLGLEKMGRDEYVSGKLEKVFSVSKMLDSVISKEERNKER
modifications: MTSSL spin label on the native cysteine at 600 (R1 side chain)
notes: Roco protein of Chlorobium tepidum, RocCOR tandem, AA 412-946; native Cys600 used for labelling; Y558 corresponds to Arg1441 of human LRRK2
B2: C. tepidum RocCOR (AA 412-946) C600R1 + L487A (domain or fragment, Chlorobium tepidum, UniProt Q8KC98 412-946, looked up)
chain: B1 chain with L76A, A147Y
modifications: MTSSL spin label on the native cysteine at 600 (R1 side chain)
notes: Roco protein of Chlorobium tepidum, RocCOR tandem, AA 412-946; native Cys600 used for labelling; L487 corresponds to Ile1371 of human LRRK2
B3: C. tepidum RocCOR (AA 412-946) C600R1, spin-labelled at the native cysteine 600 in the Roc domain (domain or fragment, Chlorobium tepidum, UniProt Q8KC98 412-946, looked up)
chain: B1 chain with A147Y
modifications: MTSSL spin label on the native cysteine at 600 (R1 side chain)
notes: Roco protein of Chlorobium tepidum, RocCOR tandem, AA 412-946; native Cys600 used for labelling; Forms a homodimer; the row is the protomer with itself; also called C600R1^Roc

Target: the molecule itself
Experiment: DEER (pulse EPR) inter-spin distance measurement; single-site MTSSL-labelled RocCOR, 50-100 uM protein, frozen at 50 K, X band; 150 mM NaCl, 30 mM Tris/HCl, 5 mM MgCl2, pH 7.5, 5% glycerol; apo, 1 mM GppNHp, GDP-AlFx (1 mM GDP, 1 mM AlCl3, 10 mM NaF) or 1 mM GDP; distances between the two symmetry-related labels of the dimer

Protein | binding result
B1 | binds
B2 | binds
B3 | binds
